Data from the RNAGym collection of RNA variant scans (doi:10.7554/elife.80360).

B1: Hammerhead Ribozyme (parent)
chain: ACCGGAUGUGCUUUCCGGUCUGAUGAGUCCGUGAGGACGAAACAG

Variants of: B1
Test: self-cleavage, relative activity (ratio to wild type); higher = more cleavage; co-transcriptional

Variant	self-cleavage
U12C U24G	1.13
U13G C43A	0.369
C2A U19G	0.381
U9C A44C	0.493
C2A U28G	0.308
A1G C16A	1.15
A1G C16U	1.9
C16A G33A	1.29
C15A A42C	0.291
C11U A26C	0.433
G35A C43U	0.401
C15G C20G	0.283
A34G A37C	0.649
U13C A23C	0.373
G18A A41C	0.328
G18A A41G	0.37
U9C A41G	0.356
A6G A42G	0.275
G25A A40G	0.267
G22A G27A	0.342
A1G A34U	1.47
G17A A42G	0.327
U19C G33C	0.38
U19G C20A	0.316

Variant	self-cleavage
G8U A41G	0.328
U21A G31U	0.554
G8U G35A	0.811
G8U G35U	0.616
G10C C30A	0.989
G8A U24G	1.32
A26U G45A	0.359
G8U A23C	0.504
C2A U24A	0.929
U13G A42U	0.333
A26C G39U	0.351
G10A C30U	1.06
A37U A42U	0.327
G27A A34C	0.431
U21G G33A	0.704
A6G A23U	0.274
G5A G33C	1.22
U19A A44U	0.262
G18A A40G	0.351
G33U A37G	1.04
G22A U24A	0.378
G8U C20A	0.571
C11A G22C	0.35
C11U U24C	1.08

Variant	self-cleavage
U12C U14C	0.83
U24C A26U	0.559
C29U C30G	0.546
G4A A34U	0.49
U13G U21G	0.537
C29A G35U	0.727
G22A A26U	0.338
C29A G45A	0.372
G31C A44U	0.655
G10C U14C	1.28
C15G G17A	0.322
G22A G33A	0.353
U28G A42U	0.311
G10A G25U	0.345
G4C G22U	0.238
C43G G45C	0.378
G22C G31A	0.25
G17A G18U	0.318
C2G G36U	0.325
C16U G27A	0.858
C16G G22C	0.284
C38G C43G	0.288
A6G U12G	0.802
C2U C3A	0.417

Variant	self-cleavage
G8C C43A	0.343
G8C C43U	0.455
G31U A34G	0.938
C20G G35U	0.353
C20G G35A	0.287
A37C A40G	0.354
G27U C30U	0.456
G25A C43A	0.294
U19G G27A	0.301
C2U A42G	0.467
C29A G31A	0.606
C29U A40C	0.51
G5C G39A	0.252
A41C A42U	0.235
U13A U21G	0.602
A1U G33C	0.705
U13G A37G	0.868
U14A A34G	0.73
U12G A42C	0.239
U28C G39A	0.291
C3A U13G	0.847
G18A G39A	0.339
G25A U32G	0.419
G5A C15G	1.53

Variant	self-cleavage
G5A C15A	1.32
G22C U28C	0.298
A1U G5C	0.287
C20U G45A	0.359
C11U C30A	0.765
A34U G45A	0.477
G17U C30A	0.583
U14G G35A	0.725
U12C C38A	0.678
G27A A40C	0.428
G36C C43U	0.308
U21G A26U	0.431
U12C U21A	0.471
G18C A40G	0.369
C30U C38U	1.1
G22A U32A	0.306
C29G G31C	0.74
G33A A44C	0.673
G17U	0.855
G17A	0.768
U21C G22C	0.39
U21G A42U	0.36
C3G A42C	0.31
C11G G17U	0.589

Variant	self-cleavage
U14C U28G	0.544
G10A U19C	0.675
G4C A34G	0.596
G25C A44G	0.556
G5A U21A	0.57
C3G G8U	0.656
G39C C43U	0.368
U14C G25U	0.32
G5U G45U	0.529
U9C A40G	0.374
C30U G35U	1.18
U13C G39U	0.419
C11G C16A	0.865
U19G A42G	0.317
U28A G39C	0.382
C15U A44G	1.21
C3A G35C	0.324
C30U G39C	0.319
A26G C29A	0.402
C3G U12A	0.352
A1C G17A	0.391
U9C G17A	0.754
C2G G10A	0.383
G4C U7A	1.03

Variant	self-cleavage
U14C A26U	0.444
C3G G5U	0.305
U7G G27U	0.511
A6G G36A	0.624
G4C A37C	0.328
G4C U21A	0.309
C15A G35C	0.509
G17C G25C	0.403
U13A C29A	0.759
C15U U24A	0.853
U21A G35U	0.466
C3A G33A	0.674
C30A G45A	0.575
A6U G22U	0.397
G18A A23U	0.345
A26C A40C	0.274
U32C G45A	0.776
U9G U32A	1.31
C3U A44C	0.522
G31U A37G	0.899
A23G G31U	0.448
A23G G45A	0.331
G22U C30G	0.277
G22U C30A	0.296

Variant	self-cleavage
A1U G22C	0.22
U28G G36A	0.573
G17A C29G	0.462
G31C A37C	1.05
A1C A42G	0.367
A1G C2G	0.735
C16U A44U	0.845
C15A A44U	0.441
G5U G22C	0.251
U28C C29U	0.688
G10A U28A	1.12
U12A A37U	0.827
U12A A37C	1.2
U24G C29U	0.987
G17A G33C	0.713
C15A U21G	0.404
U7G A34C	1.44
A6U U12C	0.716
G17C A26U	0.326
G25A G39A	0.335
G10C U19G	0.353
A40C	0.73
C16A A40C	0.402
U13A A44G	1.8

Variant	self-cleavage
U9C A23U	0.358
C3U G33U	0.991
G5U U19A	0.29
G18A C43U	0.285
G8C C11A	1.43
C15G C29G	0.485
C15G C29A	0.404
G31C G45U	0.757
A23U G33C	0.262
G18C A44U	0.354
C16G C29G	0.496
A40C A41U	0.441
G36U C38A	0.326
G33U G39A	0.341
U21G C29G	0.285
C11G U24G	1.3
U13C A37U	0.482
G8C G10A	1.47
G10A G31A	1.08
A26G A37U	0.352
U28C G45A	0.628
A6G G33U	0.863
G10C A40U	0.28
C16A C30A	0.911

Variant	self-cleavage
C3U A34G	0.91
A37U G39A	0.386
G18U A26G	0.339
G35U A37G	0.679
G35U A37U	0.52
A26U A41U	0.29
G36C A42C	0.321
G8C G35U	0.775
A37G	0.886
C3G A34G	0.409
C16U A34U	0.755
C20A G25A	0.309
G27U A40C	0.363
U14C C16U	0.95
G4A G18C	0.333
C15U C16G	0.708
C16G G45A	0.533
G5A C16G	0.931
G5A C16U	1.54
U14C G17A	0.494
C3G U19A	0.265
U14A G45A	0.765
A26C C30G	0.33
U13C G35U	0.744

Variant	self-cleavage
C16U G17U	0.714
U12C G25U	0.277
U14A U32C	0.946
C30G A42U	0.227
G8C A23C	0.45
C2G U14C	0.317
C16U A40C	0.507
U21C U24A	1.13
G4A G45C	0.393
U7C A37U	0.621
G17C C20A	0.313
A23C G45A	0.302
U7G C43A	0.382
A41C C43U	0.316
A44U	0.756
C2U G39C	0.336
U13C U19C	0.877
C2U A34G	0.841
C15A C29G	0.486
C20A U28C	0.487
A1C A26C	0.338
G22C A42U	0.368
G4A C29G	0.357
C15A G22A	0.34

Variant	self-cleavage
U19C C30U	0.878
G18C G36C	0.352
C30U A42G	0.24
C30U A42C	0.314
U9G C43A	0.271
U12A A42U	0.313
U12A A42C	0.359
U7G U9G	1.35
C11G A40U	0.273
A1G G4U	0.693
A23C G27U	0.256
U14A G31A	0.81
U7G G35A	0.654
C3G G33C	0.468
U14A U21G	0.595
U19A G45U	0.41
C16A U28G	0.638
G25C A34U	0.327
G5A A41C	0.325
G5A A41G	0.327
U13G G18A	0.642
G4C	0.784
G4C C38A	0.478
G17A G22U	0.345

Variant	self-cleavage
U21A A34U	0.359
U28C A42U	0.325
A6C G39A	0.311
G25U G35U	0.326
C16G G18U	0.744
G10U U21A	0.605
C3U A23G	0.331
G27C A34U	0.436
C15A	0.93
G10A C11A	1.09
G5A U7G	1.56
C3G C20A	0.295
U12G C20U	0.667
U13A A26U	0.976
G8U G33U	1.07
U9C U14G	1.29
G4U U12C	0.496
A6C G22C	0.296
U13G C15A	0.701
C2G A37U	0.293
G8U U19A	0.398
U13G G17U	0.78
U28A A40U	0.41
U9C C38A	0.618

Variant	self-cleavage
G18A G36U	0.496
U19G U28A	0.411
A6C U13G	0.673
C30G A40C	0.425
G27A A41C	0.339
U21G G25U	0.373
G8C G36A	0.652
U7A C29A	0.511
G4A G5C	0.365
A34U G36C	0.406
G5U U13A	1.37
G5C C11U	0.336
U12A A26U	0.587
C11G C30U	1.28
C2U C43G	0.372
U12G A40U	0.376
A6U G27U	0.395
G4C A26C	0.289
G5C U21C	0.507
G5C U21G	0.367
A23U U28C	0.356
G10C	1.05
